Source: patent EP4541444A1 (Cytiva BioProcess R&D AB, dated 2025)

Biological target: T1, human serum albumin (human, UniProt P02768 25-609)
T1 construct: also called HSA
Assay: SPR (Biacore), ligand immobilized on chip

- binding result: binds
B1: scFvHSA (scFv)
scFv: EVQLLESGGGLVQPGGSLRLSCAVSGIDLSNYAINWVRQAPGKGLEWIGIIWASGTTFYATWAKGRFTISRDNSKNTVYLQMNSLRAEDTAVYYCARTVPGYSTAPYFDLWGQGTLVTVSSGGGGSGGGGSGGGGSDIQMTQSPSSVSASVGDRVTITCQSSPSVWSNFLSWYQQKPGKAPKLLIYEASKLTSGVPSRFSGSGSGTDFTLTISSLQPEDFATYYCGGGYSSISDTTFGGGTKVEIKRTVQASGSHHHHHH
notes: also called anti-HSA scFv
